Laboratory results: patent US20110117017A1, “PEPTIDES WITH PROPERTIES OF AN […] FOR THE ALPHA 1A […] RECEPTOR AND USES THEREOF” (priority 2006, published 2011)

Target: T1, alpha1a adrenergic receptor (Homo sapiens, UniProt P35348)
T1 sequence (P35348 1-466): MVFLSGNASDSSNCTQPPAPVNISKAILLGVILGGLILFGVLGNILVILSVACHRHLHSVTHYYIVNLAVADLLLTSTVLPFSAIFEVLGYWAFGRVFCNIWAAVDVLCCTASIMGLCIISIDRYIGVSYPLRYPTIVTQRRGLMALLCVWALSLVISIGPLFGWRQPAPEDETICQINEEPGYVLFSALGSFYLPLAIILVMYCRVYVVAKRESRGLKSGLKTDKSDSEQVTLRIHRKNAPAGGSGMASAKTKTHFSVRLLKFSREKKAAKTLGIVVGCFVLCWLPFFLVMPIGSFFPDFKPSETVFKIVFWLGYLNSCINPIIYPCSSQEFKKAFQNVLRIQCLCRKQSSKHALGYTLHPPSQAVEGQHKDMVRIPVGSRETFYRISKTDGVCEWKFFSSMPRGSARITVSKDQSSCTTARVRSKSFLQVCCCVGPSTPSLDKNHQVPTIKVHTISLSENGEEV
Test: hot saturation of 125I-AdTx1 on yeast membranes expressing the alpha1a adrenergic receptor
Conditions: read-out: high-affinity specific binding (saturation) to the alpha1a adrenergic receptor; 20 μg yeast membranes, 20 h
Experimental: The analysis of the saturation of the alpha1a adrenergic receptor with AdTx1 is carried out by incubating increasing concentrations of the iodinated peptide in the presence of 20 μg of membranes containing the alpha1a adrenergic receptor, for 20 h, and then measuring the radioactivity as above.

B1: ^125I-AdTx1: radiolabeled (iodinated) AdTx1 peptide (peptide)
peptide: LTCVTSKSIFGITTEDCPDGQNLCFKRRHYVVPKIYDSTRGCAATCPIPENYDSIHCCKTDKCNE
modifications: also: radioiodinated (125I), place not given here
Kd: 0.8 ± 0.2 nM
